Experimental data as given in article doi:10.1101/2025.05.16.654432.

Experiments:
Trigger Factor = Trigger Factor (UniProt P0A850); experiment: high-speed atomic force microscopy
[1] = target: ribosome-nascent chain complex (RNC) stalled on mTFP1-KCNQ helices A, TW, B-SecM arrest peptide (UniProt P0ADZ0); experiment: high-speed atomic force microscopy

Sequence of Trigger Factor (P0A850 whole entry): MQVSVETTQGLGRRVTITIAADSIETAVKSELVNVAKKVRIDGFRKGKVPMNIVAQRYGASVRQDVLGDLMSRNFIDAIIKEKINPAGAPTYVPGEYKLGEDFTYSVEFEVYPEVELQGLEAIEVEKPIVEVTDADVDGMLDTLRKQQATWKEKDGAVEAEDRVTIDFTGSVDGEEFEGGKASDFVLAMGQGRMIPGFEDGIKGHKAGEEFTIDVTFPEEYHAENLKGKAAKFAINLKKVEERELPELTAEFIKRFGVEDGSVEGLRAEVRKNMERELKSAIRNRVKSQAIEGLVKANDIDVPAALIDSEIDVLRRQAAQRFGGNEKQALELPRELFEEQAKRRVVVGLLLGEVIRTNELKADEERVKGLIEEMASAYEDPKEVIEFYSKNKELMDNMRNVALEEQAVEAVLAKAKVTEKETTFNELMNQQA

Trigger Factor (from UniProt P0A850 1-432) (natural protein)
stoichiometry N (Trigger Factor): 2
duration of binding [1]: > 30 s
duration of binding (second interaction, near bL17) [1]: < 15 s
dwell time constant τ (first TF binding event) [1]: 8 s
dwell time constant τ (first TF molecule) [1]: 8.3 s
dwell time constant τ (second TF molecule, near bL17) [1]: 3.9 s
stoichiometry N [1]: 2
